From patent US20160193316A1 (priority 1994, published 2016)

Assays:
[1] = target: T1, DRB1*0301 (DR3) (Homo sapiens, UniProt P01903+P01911, A100K/A102G/A103R/A169T/F55Y/I96L/K41T/L162R/M171V/P40S/Q125H/Q178H/Q39Y/R42S/S66N/T106N/T262R/W38E/Y61H); assay: HLA class II peptide binding assay (pH 4.5); settings: for DR3 binding information: unit not given
T1 construct: endogenous in cells; host or cells: MAT

[2] = target: T2, DRB1*0101 (DR1) (Homo sapiens, UniProt P01903+P01911, A100R/D57E/F55L/F60I/F76Y/I96L/L162R/M171V/P40L/Q125E/R42F/V115G/Y59C); assay: HLA class II peptide binding assay; settings: Table XIXb, Malaria Super Motif Peptides With Binding Data; DR1
T2 construct: endogenous in cells; host or cells: LG2
T2 sequence (P01903 26-254 partner, other chains not shown): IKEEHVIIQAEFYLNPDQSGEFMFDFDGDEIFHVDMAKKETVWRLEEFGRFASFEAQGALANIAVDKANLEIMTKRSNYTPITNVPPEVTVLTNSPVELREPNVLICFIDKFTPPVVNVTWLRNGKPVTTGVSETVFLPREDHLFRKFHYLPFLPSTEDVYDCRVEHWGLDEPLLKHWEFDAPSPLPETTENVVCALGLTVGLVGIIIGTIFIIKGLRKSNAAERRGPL

[3] = target: T3, DRB1*0401 (DR4w4) (Homo sapiens, UniProt P01903+P01911, A100K/A169T/F76Y/I96L/K127E/L162R/M171V/N62H/P40V/Q125Y/R42H/S133A/S149N/S66Y/V115G/V209L/W38E); assay: HLA class II peptide binding assay; settings: for DR4w4 binding data: Table XIXb
T3 construct: endogenous in cells; host or cells: Preiss
T3 sequence (P01903 26-254 partner, other chains not shown): as above

[4] = target: T4, DRB1*0405 (DR4w15) (Homo sapiens, UniProt P01903+P01911, A100R/A169T/D86S/F76Y/I96L/K127E/L162R/M171V/N62H/P40V/Q125Y/R42H/S133A/S149N/S66Y/V115G/V209L/W38E); assay: HLA class II peptide binding assay; settings: Table XIXb; DR4w15
T4 construct: endogenous in cells; host or cells: KT3

[5] = target: T5, DRB1*0701 (DR7) (Homo sapiens, UniProt P01903+P01911, A100R/A102G/A103Q/D57E/D86V/E43K/F76Y/K127E/L162R/M171V/P40G/Q125H/Q99D/R33Q/R42Y/R54Q/S133A/S66F/T210M/V115G/Y107V/Y59L/Y89S); assay: biochemical; format: binding
T5 construct: endogenous in cells; host or cells: Pitout

[6] = target: T6, DRB1*0802 (DR8w2) (Homo sapiens, UniProt P01903+P01911, A100R/A103L/A169T/F76Y/H45Y/I96F/K41T/L162R/M171V/P40S/Q125H/Q178H/Q39Y/Q99D/R218S/R42G/S66Y/V115G/W38E); assay: biochemical; format: binding
T6 construct: endogenous in cells; host or cells: OLL

[7] = target: T7, DRB1*1101 (DR5w11) (Homo sapiens, UniProt P01903+P01911, A100R/A169T/A87E/I96F/K41T/L162R/M171V/P40S/Q125H/Q178H/Q39Y/Q99D/R42S/S66Y/T262R/V115G/W38E); assay: biochemical; format: binding
T7 construct: endogenous in cells; host or cells: Sweig
T7 sequence (P01903 26-254, other chains not shown): as the sequence (P01903 26-254 partner, other chains not shown) above

[8] = target: T8, DRB1*1201 (DR5w12) (Homo sapiens, UniProt P01903+P01911, A100R/A169T/D57E/D86V/F55L/H45Y/K41T/L162R/M171V/P40S/Q125H/Q178H/Q39Y/Q99D/R42G/S66L/T262R/V114A/V67L/W38E/Y59H/Y61H/Y89S); assay: HLA class II peptide binding assay; settings: Table XIXb; DR5w12
T8 construct: endogenous in cells; host or cells: Herluf

[9] = target: T9, DRB5*0101 (DR2w2β2) (Homo sapiens, UniProt P01903+Q30154); format: binding
T9 construct: expressed in transfected cells; host or cells: L416.3 (fibroblasts) or GM3107

[10] = target: T10, HLA-A*0301 (Homo sapiens, UniProt P04439); assay: HLA class I peptide binding assay; settings: for A*301 (binding data): Malaria A03 supermotif peptides; for A*0301 (binding information): Table XVI, Malaria A3 motif peptides
T10 construct: endogenous in cells; host or cells: GM3107

[11] = DR3a motif peptides, exemplary 15-mer containing the core sequence
[12] = HLA-A*0301 binding value, unit not given
[13] = binding value to HLA-A*0301, unit not given
[14] = binding value for HLA-A*0301, unit not given

LGEEDKDLD
DR3 binding information ([1]; Malaria DR3b motif peptides): -0.0130

LHEGCTSEL
DR1 binding data [2]: 0.0001
DR3 binding data ([1]; Table XIXb, DR3): -0.0041
DR4w4 binding data [3]: -0.0009
DR4w15 binding data [4]: -0.0014
DR7 binding data [5]: -0.0003
DR8w2 binding data [6]: -0.0003
DR5w11 binding data [7]: -0.0002
DR5w12 binding data [8]: 0.0001
DR2w2β2 binding data [9]: -0.0005

LHSDASKNK
DR3 binding information [1, 11]: -0.0033

LLIFHINKGK
A*301 (binding data) ([10]; binding value, no unit given): 0.0260

LLIFNINGK
A*0301 (binding information) [10, 12]: 0.0260

LPQDNRGNS
DR3 binding information ([1]; Malaria DR3b motif peptides): -0.0033

LSEEKIKKG
DR3 binding information [1, 11]: -0.0033

LSFINSYEKTK
A*0301 (binding information) [10, 12]: 0.0004

LSTEWSPCS
DR3 binding information [1, 11]: -0.0033

LVGCHPSDOK (LVGCHPSDGK)
A*0301 (binding information) [10, 13]: 0.0004

LVTVFLIFF
DR1 binding data [2]: 0.0001
DR4w4 binding data [3]: 0.0030
DR7 binding data [5]: 0.0010

LYNELEMNY
DR3 binding information [1, 11]: 0.0270

MTTNVEGR
A*0301 (binding information) [10, 12]: 0.0002

MTTNVEGRR
A*0301 (binding information) [10, 12]: 0.0002

NIRVLNELNY
A*0301 (binding information) [10, 14]: 0.0005

NSEKDETIK
A*301 (binding data) ([10]; binding value, no unit given): 0.0002

NSEKDFIKK
A*0301 (binding information) [10, 12]: 0.0002

NSRNRKNEEK
A*0301 (binding information) [10, 12]: 0.0004

NTEKGFHPFK
A*0301 (binding information) [10, 14]: 0.0047

QSKLEQERR
A*301 (binding data) ([10]; binding value, no unit given): 0.0002

QSQDNNONRH (QSQDNNGNRH)
A*0301 (binding information) [10, 13]: 0.0004

QVRICHLNDR
A*0301 (binding information) [10, 13]: 0.0005

RINEEKNEKK
A*0301 (binding information) [10, 12]: 0.0024

SDASICNKEK
A*0301 (binding information) [10, 13]: 0.0005

VDESEDITK
A*0301 (binding information) [10, 12]: 0.0002

VDLYLLMDC
DR1 binding data [2]: 0.0001
DR4w4 binding data [3]: 0.0028
DR4w15 binding data [4]: -0.0009
DR7 binding data [5]: -0.0003
DR8w2 binding data [6]: -0.0003
DR5w11 binding data [7]: -0.0002
DR5w12 binding data [8]: 0.0001
DR2w2β2 binding data [9]: -0.0005

VEKTASCGV
DR1 binding data [2]: 0.0004
DR4w4 binding data [3]: 0.0021
DR4w15 binding data [4]: -0.0009
DR7 binding data [5]: 0.0095
DR8w2 binding data [6]: 0.0005
DR5w11 binding data [7]: -0.0002
DR5w12 binding data [8]: 0.0001
DR2w2β2 binding data [9]: -0.0009

VEVNKRKSK
DR3 binding information ([1]; Malaria DR3b motif peptides): 0.0880

VGLVLYNIEK
A*0301 (binding information) [10, 14]: 0.0005

VLDNERKQS
DR3 binding information ([1]; Malaria DR3b motif peptides): -0.0130

VLNELNYDN
DR3 binding information [1, 11]: -0.0033

VLYNIEKGRH
A*0301 (binding information) [10, 14]: 0.0029

VLYNTEKGRS
A*301 (binding data) ([10]; binding value, no unit given): 0.0110

VNKEKEKFI
DR3 binding information [1, 11]: -0.0033

VPCGKGTISR
A*301 (binding data) ([10]; Table IX): 0.0004

VPSDVPKNP
DR4w4 binding information ([3]; DR3a motif peptides, unit not given, exemplary 15-mer containing the core sequence): -0.0130

VQYDNFQDE
DR3 binding information [1, 11]: -0.0033

VTPEQPQGD
DR3 binding information [1, 11]: -0.0033

YAGEPAPFD
DR3 binding information [1, 11]: -0.0130

YDNAGINLY
DR1 binding data [2]: 0.0003
DR4w4 binding data [3]: -0.0009
DR4w15 binding data [4]: -0.0009
DR7 binding data [5]: -0.0003
DR8w2 binding data [6]: -0.0003
DR5w11 binding data [7]: -0.0002
DR5w12 binding data [8]: 0.0001
DR2w2β2 binding data [9]: -0.0005

YKFVVPGAA
DR4w4 binding data [3]: 1.0000
DR8w2 binding data [6]: 2.5000
DR5w12 binding data [8]: 0.3500

YKNDKQVNK
DR3 binding information [1, 11]: -0.0033

YREEVCNDE
DR3 binding information [1, 11]: -0.0033
